Consider 7 molecules from patent publication US20170196940A1 (RESEARCH FOUNDATION FOR THE STATE UNIVERSITY OF NEW YORK, published 2017).

Positions of bridges follow the written chain, without caps; N, C: chain ends. Non-standard residues stand in square brackets, D forms with d. No end group written: not given here. Bph = 4,4'-bis(methyl)biphenyl crosslink between two cysteines (CL-1)

What all share (assay): cell-based or functional assay
For experiment [1], the target named is T1, human glucagon-like peptide 1 receptor (GLP-1R) (human, UniProt P43220 24-463).
For experiment [2], the target named is T2, human glucagon receptor (GCGR) (human, UniProt P47871 26-477).
T2 sequence (P47871 26-477): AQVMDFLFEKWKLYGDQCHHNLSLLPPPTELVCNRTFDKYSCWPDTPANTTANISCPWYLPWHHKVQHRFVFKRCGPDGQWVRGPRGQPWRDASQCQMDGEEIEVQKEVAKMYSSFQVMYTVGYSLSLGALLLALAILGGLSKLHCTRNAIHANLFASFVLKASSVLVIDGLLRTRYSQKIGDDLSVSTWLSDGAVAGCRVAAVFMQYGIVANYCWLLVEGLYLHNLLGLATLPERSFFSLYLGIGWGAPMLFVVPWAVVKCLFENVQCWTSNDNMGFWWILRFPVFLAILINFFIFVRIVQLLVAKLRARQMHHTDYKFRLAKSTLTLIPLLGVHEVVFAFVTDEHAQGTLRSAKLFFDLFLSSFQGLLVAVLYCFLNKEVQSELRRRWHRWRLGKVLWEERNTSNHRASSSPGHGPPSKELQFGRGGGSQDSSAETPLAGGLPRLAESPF
Experiment [3] has as its target T2, human glucagon receptor (GCGR). This is another data set of the same source.
Experiment [4] concerns the target T1, human glucagon-like peptide 1 receptor …. This is another data set of the same source.

B1: peptide 7 (peptide)
peptide: H[dS]QGTFTSDYSKYLDECAAKEFICWLMNTKRNRNNIA-NH2
modifications: cysteine pairing not given here
For B1, in experiment [1], the “fold higher potency against peptide 5, CRE-luciferase reporter assay” value is more than 80 fold. For the same molecule, the “Agonist activity (nM), EC50, CRE-luciferase reporter in HEK293 cells overexpressing the receptor” value (from here on “Agonist activity (nM), EC50”) in experiment [2] is 30 nM.

B2: peptide 4 (peptide)
peptide: H[dS]QGTFTSDYSKYLDSCRAQDFVCWLMNTKRNRNNIA-NH2
modifications: cysteine pairing not given here
Regarding B2, the “fold increase in activity against peptide 1, CRE-luciferase reporter assay” value in experiment [3] and in experiment [1] was approximately 2 fold throughout. In addition, the “Agonist activity (nM), EC50” value was 30 nM in experiment [2] and approximately 500 nM in experiment [4].

B3: peptide 9 (peptide)
peptide: H[dS]QGTFTSDYSKYLDECAAKEFICWLMNTKRNRNNIA-NH2
modifications: linker 17-24 via Bph
Turning to B3, the “fold increase in activity against linear peptide 7, CRE-luciferase reporter assay” value came to 40 fold in experiment [3] and 80 fold in experiment [1]. The “Agonist activity (nM), EC50” value in experiment [2] came out at 0.7 nM; in experiment [4], 0.2 nM.

B4: peptide 2 (peptide)
peptide: H[dS]QGTFTSDYSKYLDSRRAQ[dC]FVQWLMCTKRNRNNIA-NH2
modifications: cysteine pairing not given here
Regarding B4, the “Agonist activity (nM), EC50” value in experiment [2] is more than 1000 nM; in experiment [4], more than 2000 nM.

B5: peptide 3 (peptide)
peptide: H[dS]QGTFTSDYSKYLDS[dC]RAQDFVCWLMNTKRNRNNIA-NH2
modifications: linker 17-24 via Bph
Take B5: the “fold increase in activity against linear peptide 1, CRE-luciferase reporter assay” value in experiment [3] came out at 16 fold; in experiment [1], 2 fold. In addition, the “Agonist activity (nM), EC50” value in experiment [2] was 3 nM; in experiment [4], approximately 500 nM.

B6: peptide 5 (peptide)
peptide: H[dS]QGTFTSDYSKYLDECRAQDFVCWLMNTKRNRNNIA-NH2
modifications: cysteine pairing not given here
With B6, the “Agonist activity (nM), EC50” value in experiment [4] was approximately 400 nM.

B7: peptide 8 (peptide)
peptide: H[dS]QGTFTSDYSKYLDECAVRLFICWLMNTKRNRNNIA-NH2
modifications: cysteine pairing not given here
For B7, the “fold higher potency against peptide 5, CRE-luciferase reporter assay” value in experiment [1] was more than 80 fold. The “Agonist activity (nM), EC50” value in experiment [2] is 1000 nM.
